Measurements: article PMC7838286

How the values were obtained:
[1] = target: Cp150 homodimer (Cp149 variant with a C-terminal cysteine) (Hepatitis B Virus); test: cryo-EM structure; capsids left after treatment of co-assembled capsids with 3 M urea and 100 uM EDTA; C1 symmetry throughout; complete capsid 6.2 Å, holey capsids 10.8 Å and 12.9 Å
[2] = target: Cp150 homodimer (Cp149 variant with a C-terminal cysteine) (Hepatitis B Virus); test: SEC; 2 uM Cp150Bo with 4 uM holey capsid, 300 mM NaCl, 23 °C, 24 h; 2 uM Cp150Bo alone with 300 mM NaCl as control; Superose 6 with absorbance at 280 and 504 nm and fluorescence at 512 nm

Which stoichiometry N [1] does the source give for “Cp150 homodimer (Cp149 variant with a C-terminal cysteine) (domain or fragment)” here?
The stoichiometry N was 120 dimers.

How did the Cp150Bo dimers added per holey capsid (dimers per holey capsid) [2] turn out when “Cp150Bo homodimer (BODIPY-FL-labeled Cp150) (domain or fragment)” was run?
The Cp150Bo dimers added per holey capsid (dimers per holey capsid) was 16.
